How the values were obtained:
[1] = biological target: T1, MAGE-B2 peptide, E7C peptide on HLA-A*02:01 (human); test: killing
T1 peptide: GVYDGECHSV

[2] = biological target: T2, MAGE-B2 peptide, S9D peptide on HLA-A*02:01 (human); test: killing
T2 peptide: GVYDGEEHDV

[3] = biological target: T3, MAGE-B2 peptide, V2I peptide on HLA-A*02:01 (human); test: killing
T3 peptide: GIYDGEEHSV

[4] = biological target: T4, MAGE-B2 peptide, V10L peptide on HLA-A*02:01 (human); test: killing
T4 peptide: GVYDGEEHSL

[5] = biological target: T5, MAGE-B2 peptide, H8W peptide on HLA-A*02:01 (human); test: killing
T5 peptide: GVYDGEEWSV

[6] = biological target: T6, MAGE-B2 peptide, V10I peptide on HLA-A*02:01 (human); test: killing
T6 peptide: GVYDGEEHSI

[7] = biological target: T7, MAGE-B2 peptide, S9C peptide on HLA-A*02:01 (human); test: killing
T7 peptide: GVYDGEEHCV

[8] = biological target: T8, MAGE-B2 peptide, S9G peptide on HLA-A*02:01 (human); test: killing
T8 peptide: GVYDGEEHGV

[9] = biological target: T9, MAGE-B2 peptide, E7L peptide on HLA-A*02:01 (human); test: killing
T9 peptide: GVYDGELHSV

[10] = biological target: T10, MAGE-B2 peptide, Y3F peptide on HLA-A*02:01 (human); test: killing
T10 peptide: GVFDGEEHSV

[11] = biological target: T11, MAGE-B2 peptide, H8V peptide on HLA-A*02:01 (human); test: killing
T11 peptide: GVYDGEEVSV

[12] = biological target: T12, MAGE-B2 peptide, E7N peptide on HLA-A*02:01 (human); test: killing
T12 peptide: GVYDGENHSV

[13] = biological target: T13, MAGE-B2 peptide, D4N peptide on HLA-A*02:01 (human); test: killing
T13 peptide: GVYNGEEHSV

[14] = biological target: T14, MAGE-B2 peptide, V2L peptide on HLA-A*02:01 (human); test: killing
T14 peptide: GLYDGEEHSV

[15] = biological target: T15, MAGE-B2 peptide, V2T peptide on HLA-A*02:01 (human); test: killing
T15 peptide: GTYDGEEHSV

[16] = biological target: T16, MAGE-B2 peptide, E7H peptide on HLA-A*02:01 (human); test: killing
T16 peptide: GVYDGEHHSV

[17] = biological target: T17, MAGE-B2 peptide, E6C peptide on HLA-A*02:01 (human); test: killing
T17 peptide: GVYDGCEHSV

[18] = biological target: T18, MAGE-B2 peptide, E6Q peptide on HLA-A*02:01 (human); test: killing
T18 peptide: GVYDGQEHSV

[19] = biological target: T19, MAGE-B2 peptide, S9Q peptide on HLA-A*02:01 (human); test: killing
T19 peptide: GVYDGEEHQV

[20] = biological target: T20, MAGE-B2 peptide, S9E peptide on HLA-A*02:01 (human); test: killing
T20 peptide: GVYDGEEHEV

[21] = biological target: T21, MAGE-B2 peptide, E6V peptide on HLA-A*02:01 (human); test: killing
T21 peptide: GVYDGVEHSV

[22] = biological target: T22, MAGE-B2 peptide, E7Q peptide on HLA-A*02:01 (human); test: killing
T22 peptide: GVYDGEQHSV

[23] = biological target: T23, MAGE-B2 peptide, S9N peptide on HLA-A*02:01 (human); test: killing
T23 peptide: GVYDGEEHNV

[24] = biological target: T24, MAGE-B2 peptide, S9I peptide on HLA-A*02:01 (human); test: killing
T24 peptide: GVYDGEEHIV

[25] = biological target: T25, MAGE-B2 peptide, E7T peptide on HLA-A*02:01 (human); test: killing
T25 peptide: GVYDGETHSV

[26] = biological target: T26, MAGE-B2 peptide, S9V peptide on HLA-A*02:01 (human); test: killing
T26 peptide: GVYDGEEHVV

[27] = biological target: T27, MAGE-B2 peptide, H8F peptide on HLA-A*02:01 (human); test: killing
T27 peptide: GVYDGEEFSV

[28] = biological target: T28, MAGE-B2 peptide, E7D peptide on HLA-A*02:01 (human); test: killing
T28 peptide: GVYDGEDHSV

[29] = biological target: T29, MAGE-B2 peptide, S9W peptide on HLA-A*02:01 (human); test: killing
T29 peptide: GVYDGEEHWV

[30] = biological target: T30, MAGE-B2 peptide, D4C peptide on HLA-A*02:01 (human); test: killing
T30 peptide: GVYCGEEHSV

[31] = biological target: T31, MAGE-B2 peptide, S9R peptide on HLA-A*02:01 (human); test: killing
T31 peptide: GVYDGEEHRV

[32] = biological target: T32, MAGE-B2 peptide, S9A peptide on HLA-A*02:01 (human); test: killing
T32 peptide: GVYDGEEHAV

[33] = biological target: T33, MAGE-B2 peptide, E7M peptide on HLA-A*02:01 (human); test: killing
T33 peptide: GVYDGEMHSV

[34] = biological target: T34, MAGE-B2 peptide, S9T peptide on HLA-A*02:01 (human); test: killing
T34 peptide: GVYDGEEHTV

[35] = biological target: T35, MAGE-B2 peptide, E7Y peptide on HLA-A*02:01 (human); test: killing
T35 peptide: GVYDGEYHSV

[36] = biological target: T36, MAGE-B2 peptide, H8Y peptide on HLA-A*02:01 (human); test: killing
T36 peptide: GVYDGEEYSV

[37] = biological target: T37, MAGE-B2 peptide, V2M peptide on HLA-A*02:01 (human); test: killing
T37 peptide: GMYDGEEHSV

[38] = biological target: T38, MAGE-B2 peptide, S9P peptide on HLA-A*02:01 (human); test: killing
T38 peptide: GVYDGEEHPV

[39] = biological target: T39, MAGE-B2 peptide, V10A peptide on HLA-A*02:01 (human); test: killing
T39 peptide: GVYDGEEHSA

[40] = biological target: T40, MAGE-B2 peptide, H8N peptide on HLA-A*02:01 (human); test: killing
T40 peptide: GVYDGEENSV

[41] = biological target: T41, MAGE-B2 peptide on HLA-A*02:01 (human); test: multimer staining
T41 peptide: GVYDGEEHSV

Measured: binding result

B1: TCR3 (TCR, V domains shown)
Valpha: AQKVTQAQTEISVVEKEDVTLDCVYETRDTTYYLFWYKQPPSGELVFLIRRNSFDEQNEISGRYSWNFQKSTSSFNFTITASQVVDSAVYFCALSVLRMDSSYKLIFGSGTRLLVRP
Vbeta: NAGVTQTPKFRVLKTGQSMTLLCAQDMNHEYMYWYRQDPGMGLRLIHYSVGEGTTAKGEVPDGYNVSRLKKQNFLLGLESAAPSQTSVYFCASSLQGAGQPQHFGDGTRLSIL
recognises: [1] | [2] | [3] | [4] | [5] | [6] | [7] | [8] | [9] | [10] | [11] | [12] | [13] | [14] | [15] | [16] | [17] | [18] | [19] | [20] | [21] | [22] | [23] | [24] | [25] | [26] | [27] | [28] | [29] | [30] | [31] | [32] | [33] | [34] | [35] | [36] | [37] | [38] | [39] | [40] | [41]
